# From the DeepSol protein solubility set
# Assay: soluble on expression in E. coli; label from the status in PepcDB or PDB records
row,Sequence,soluble on expression in E. coli
1,MVRVIIKGGVWKNTEDEILKAAIMKYGKNQWSRIASLLHRKSAKQCKARWFEWLDPGIKKTEWSREEDEKLLHLAKLMPTQWRTIAPIVGRTSAQCLERYEHLLDEAQRKAEGLDEEATETRKLKPGEIDPTPETKPARPDPIDMDDDELEMLSEARARLANTQGKKAKRKARERQLSDARRLASLQKRREMRAAGLAFARKFKPKRNQIDYSEEIPFEKHVPAGFHNPSEDRYVVEDANQKAIEDHQKPRGREIEMEMRREDREKLKKRKEQGEADAVFNIKEKKRSKLVLPEPQISDRELEQIVKIGHASDSVRQYIDGTATSGLLTDYTESARANAVAARTMRTPMLKDTVQLELENLMALQNTESALKGGLNTPLHESELGKGVLPTPKVAATPNTVLHAIAATPGTQSQFPGSTPGGFATPAGSVAATPFRDQMRINEEIAGSALEQKASLKRALASLPTPKNDFEVVGPDDDEVEGAVEDESNQDEDGWIEDASERAENKAKRNAENRVRNMKMRSQVIQRSLPKPTKVNEQATRATNSSADDMVKAEMSKLLAWDVDNKPPSVIYSREELDAAADLIKQEAESGPELNSLMWKVVEQCTSEIILSKDKFTRIAILPREEQMKALNDEFQMYRGWMNQRAKRAAKVEKKLRVKLGGYQAIHDKLCKKYQEVTTEIEMANIEKKTFERLGEHELKAINKRVGRLQQEVTTQETREKDLQKMYSKLSNKQWKLSQIEIHDAASTTSAPITY,not soluble
2,MSCPVIELTQQLIRRPSLSPDDAGCQALLIERLQAIGFTVERMDFADTQNFWAWRGQGETLAFAGHTDVVPPGDADRWINPPFEPTIRDGMLFGRGAADMKGSLAAMVVAAERFVAQHPNHTGRLAFLITSDEEASAHNGTVKVVEALMARNERLDYCLVGEPSSIEVVGDVVKNGRRGSLTCNLTIHGVQGHVAYPHLADNPVHRAAPFLNELVAIEWDQGNEFFPATSMQIANIQAGTGSNNVIPGELFVQFNFRFSTELTDEMIKAQVLALLEKHQLRYTVDWWLSGQPFLTARGKLVDAVVNAVEHYNEIKPQLLTTGGTSDGRFIARMGAQVVELGPVNATIHKINECVNAADLQLLARMYQRIMEQLVA,soluble
3,MGSDKIHHHHHHMEQLPILNLSDWHAGGQSRHAFITKLADAARRIGFFYLTGHGIELARQQQVLLLARDFFALPLADKLAVKMTNTPHFRGYTRLQGELTLGKPDLREQFDIMQEETANPPRSDVPKWSQLQGPNQWPSQLPQMKTILLEWQQDLADTSVALLKALAVALEQSETAFDATIDAGPYQHMKLIRYPNANGETSGQGVGAHKDPGYLTLVLQDKQSGLEVQTDEGWLSIPPLEGAFVVNIGELLELASNGYLKATYHRVTSPPAGVERYSCAFFMAAQLNATVPLLPLPEYLARQALGPASDPLNPLFHQVGQNVLKGRLRSHPDVAKAHYASFANAI,not soluble
4,MKTNKKDEETGGNVYAHLDKTSVLQEARAFNETPINARKCCFILSKLIYIIQQGESIGRTEATEAFFGVTKLWQSKDVSLRRMVYLAVKELAEVSDDVIIVTSSLTKDMTGREDLYRAAAIRALCKITDTGMLQTIERYMKQAIVDRNSAISSSAIVSSIHLMRKSSEVVRRWANEVQEAVSSDNHMVQYHALALLYQIRANDRLAVNKLVQKFSKNALRSPYAVCYLIRIATRCLVDDDQPDSSVFTFIESCLRHKSEMVVYEAARAIVSLPQTTPSEIQPAITALQMCCTSPKAAVRFAAVRTLNKVAMAHPNAVMSCNVDLEKFITDPNRSIATLAITTLLKTGAESSVERLMQQIAGFVNEISDEFKIVVVDAIRSLCSRYPRKHTVMMPFLAKMLRSDGSYDYKKAIVETIIAIIEENPDAKVAGLAHLCEFIEDCEHDNLSTRVLHLLGREAPKTPNPSSYIRFIYNRVILESTKVRAAAVTALAKFGAQCVDLRPSIQVLLKRCLLDSDDEVRDRATFYLKMLTEAAEGLIHNFILDGLQVSPSGLERSILDYLRSGSYSSPFDLRVVPVTQQALSQPEKRVPQLVEEEEKPKAPKVEPYAAQLAAIPQFAALGPVFKSSTRIALTESIAEYTVHMIKHTFANAMVLQFECKNTMNDQLLLDVSVELEDPDGEWETGNTVQIDKLPYGEVHSAFSLLEFPDSGAISGSLGAILKFKVMDVDPTSGEPDSDDTYEQTYVLEEVDVNVSDSVQGVAKSSFGSAWEALGDDATREETFQLSTVENIPDAVKKISEILGLVPCERSDRVPEGKTQHTVFLSGVFRGGYDVLSKATVAVDPNDNSIAMNIIIKSNEPLVADLVISAVV,not soluble
